Experimental data as given in patent publication US8658672.

What was measured:
[1] = target: [35S]-labeled human HIF-1α protein, Q16665
[2] = target: T1, F-HIF-1α peptide (788-822 amino acids)
T1 chain: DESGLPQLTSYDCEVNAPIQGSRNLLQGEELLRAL

Chain of [35S]-labeled human HIF-1α protein, Q16665 (Q16665 401-826): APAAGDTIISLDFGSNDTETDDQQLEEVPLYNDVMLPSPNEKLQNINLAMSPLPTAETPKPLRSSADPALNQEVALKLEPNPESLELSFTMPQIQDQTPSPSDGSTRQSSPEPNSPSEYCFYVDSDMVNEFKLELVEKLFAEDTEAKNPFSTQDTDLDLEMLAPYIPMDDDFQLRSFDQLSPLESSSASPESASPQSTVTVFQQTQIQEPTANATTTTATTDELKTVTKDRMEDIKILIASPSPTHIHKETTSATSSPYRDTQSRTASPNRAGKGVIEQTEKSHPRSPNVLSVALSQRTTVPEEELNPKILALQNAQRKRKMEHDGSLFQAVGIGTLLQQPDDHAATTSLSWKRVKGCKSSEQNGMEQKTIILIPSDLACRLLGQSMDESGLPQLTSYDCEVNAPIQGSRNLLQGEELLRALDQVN

B1: recombinant human FIH-1, histidine-tagged fusion protein (protein)
chain: MAATAAEAVASGSGEPREEAGALGPAWDESQLRSYSFPTRPIPRLSQSDPRAEELIENEEPVVLTDTNLVYPALKWDLEYLQENIGNGDFSVYSASTHKFLYYDEKKMANFQNFKPRSNREEMKFHEFVEKLQDIQQRGGEERLYLQQTLNDTVGRKIVMDFLGFNWNWINKQQGKRGWGQLTSNLLLIGMEGNVTPAHYDEQQNFFAQIKGYKRCILFPPDQFECLYPYPVHHPCDRQSQVDFDNPDYERFPNFQNVVGYETVVGPGDVLYIPMYWWHHIESLLNGGITITVNFWYKGAPTPKRIEYPLKAHQKVAIMRNIEKMLGEALGNPQEVGPLLNTMIKGRYN
interaction of [35S]-HIF-1α with bead-bound GST-CBP after reaction with FIH-1 [1]: the addition of FIH-1 reduced significantly the interaction between HIF-1α and CBP | MALDI-TOF mass of the peptide after incubation with FIH-1 (asparagine hydroxylation) [2]: after treatment with FIH-1 the peptide gave a new MALDI-TOF peak corresponding to an increase of molecular weight of 16
